In publication PMC6956856:

Target: Drosophila melanogaster SERINC (Drosophila melanogaster)
Assay: cryo-EM structure

## Drosophila melanogaster SERINC (natural protein)
  stoichiometry N: 6
